Assay [1] addresses human serum albumin (HSA) (human), P02768. The assay is described as follows: competition SPA on biotinylated HSA, 125I acylated GLP-1 tracer. The note with it: remark: other sources report otherwise.
For assay [2], the target named is human serum albumin (HSA) (human) (UniProt P02768). The description is as above.

For two molecules, EC50 results are on record in patent publication US20140011732A1.

For orientation: EC50 means the midpoint of the concentration-response curve. High values mean weaker potency, low ones greater potency.

Non-standard residues stand in square brackets, D forms with d. No end group written: not given here. Aib = CC(C)(N)C(=O)O

B1: N-epsilon26-[(S)-4-Carboxy-4-({trans-4-[(19-carboxynonadecanoylamino)methyl]cyclohexanecarbonyl}amino)butyryl][Aib8,Arg34]GLP-1-(7-37) (peptide)
peptide: HAEGTFTSDVSSYLEGQAAKEFIAWLVRGRG
modifications: here or on the partner: Aib8; Lys26 N-epsilon carries the acyl side chain printed in the name; biotinylated
For B1, in assay [1], the EC50 was in the range of 300 to 800 nM.

B2: N-epsilon23-[2-(2-[2-(2-[2-(2-((R)-3-[1-(17-Carboxyheptadecanoylamino)piperidin-4-ylcarbonylamino]-3-(carboxypropionylamino)ethoxy)ethoxy]acetylamino)ethoxy]eth … (peptide)
peptide: H[Aib]EGTFTSDVSSYLEGKAAREFIAWLVRGRG
modifications: not fully specified (residue 17); printed as N-epsilon23-[2-(2-[2-(2-[2-(2-(R)-3-[1-(17-Carboxyheptadecanoylamino)piperidin-4-ylcarbonylamino]-3-(carboxypropionylamino)ethoxy)ethoxy]acetylamino)ethoxy]ethoxy)acetyl][Aib8,Arg26,Arg 34]GLP-1-(7-37)
Take B2: the EC50 in assay [2] was in the range of 300 to 800 nM.
